From US20240075137A1 (COMPUGEN, published 2024)
Like-named read-outs stand apart in the source and are kept apart here.

T1: PVRIG (FACS-based competition assay of FIGS. 7 and 15) (Homo sapiens, UniProt Q6DKI7)
T1 construct: made because the format of the assay is only described in U.S. Ser. No. 15/048,967; also called human PVRIG
T1 sequence (receptor, looked up): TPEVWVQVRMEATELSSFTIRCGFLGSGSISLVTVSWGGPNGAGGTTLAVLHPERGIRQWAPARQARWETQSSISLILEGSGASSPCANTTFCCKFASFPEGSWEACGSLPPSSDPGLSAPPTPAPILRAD

T2: cynomolgus PVRIG on cells (cynomolgus, UniProt A0A2K5WVV8 41-322)
T2 construct: whole, on cells; also called cPVRIG; expi cPVRIG cells
T2 sequence: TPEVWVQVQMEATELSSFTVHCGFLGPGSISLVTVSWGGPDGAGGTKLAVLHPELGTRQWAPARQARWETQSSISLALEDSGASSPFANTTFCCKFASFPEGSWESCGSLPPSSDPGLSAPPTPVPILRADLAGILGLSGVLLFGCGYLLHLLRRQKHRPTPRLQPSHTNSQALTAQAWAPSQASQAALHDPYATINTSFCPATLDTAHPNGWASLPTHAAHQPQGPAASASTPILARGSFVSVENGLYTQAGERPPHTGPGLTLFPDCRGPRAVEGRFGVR

T3: human PVRIG on cells (human, UniProt Q6DKI7 1-326)
T3 construct: whole, on cells; over-expressed on HEK cells or endogenous on Jurkat and CD8 T cells; also called hPVRIG; HEK hPVRIG cells
T3 sequence (looked up): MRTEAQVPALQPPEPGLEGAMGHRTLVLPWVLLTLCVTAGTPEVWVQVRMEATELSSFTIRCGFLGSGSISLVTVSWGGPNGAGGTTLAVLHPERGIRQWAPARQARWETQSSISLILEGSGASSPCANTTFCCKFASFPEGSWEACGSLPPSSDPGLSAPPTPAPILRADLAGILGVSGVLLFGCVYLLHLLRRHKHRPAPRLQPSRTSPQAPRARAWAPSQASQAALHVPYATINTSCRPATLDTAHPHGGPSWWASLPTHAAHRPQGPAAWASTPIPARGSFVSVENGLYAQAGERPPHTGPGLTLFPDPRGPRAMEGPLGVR

T4: human TIGIT on cells (human, UniProt Q495A1 22-141)
T4 construct: also called Expi293 human TIGIT over-expressing cells
T4 sequence: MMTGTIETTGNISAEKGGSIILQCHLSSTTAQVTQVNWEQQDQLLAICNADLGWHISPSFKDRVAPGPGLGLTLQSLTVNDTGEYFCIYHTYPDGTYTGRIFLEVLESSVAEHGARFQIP

T5: Mouse TIGIT-His (mouse, UniProt P86176)
T5 construct: also called mouse TIGIT monomer (prepared in-house)
T5 sequence (soluble monomer with His tag, looked up): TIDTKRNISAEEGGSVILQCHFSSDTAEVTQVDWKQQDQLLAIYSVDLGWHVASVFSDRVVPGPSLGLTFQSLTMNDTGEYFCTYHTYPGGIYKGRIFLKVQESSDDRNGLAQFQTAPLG

T6: human TIGIT ECD with C-terminal polyhistidine tag (human, UniProt Q495A1 22-141)
T6 construct: in-house or Sino Biological; also called hTIGIT-HIS; human TIGIT-HIS
T6 sequence: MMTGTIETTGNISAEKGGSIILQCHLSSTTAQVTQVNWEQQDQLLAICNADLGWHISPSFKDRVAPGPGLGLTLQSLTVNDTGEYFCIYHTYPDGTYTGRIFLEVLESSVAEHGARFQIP


Legend:
[1] = target: T1, PVRIG (FACS-based competition assay of …); assay: FACS-based competition assay of PVRIG blocking; format and competitor not given
[2] = target: T2, cynomolgus PVRIG on cells; assay: FACS, cyno PBMC, NK cells, 10ug/ml
[3] = target: T3, human PVRIG on cells; assay: FACS, human PBMC, CD8+ T cells, 10ug/ml
[4] = target: T2, cynomolgus PVRIG on cells; assay: FACS, cyno PBMC, NK cells, 10ug/ml; remark: listed apart in the source
[5] = target: T3, human PVRIG on cells; assay: FACS, HEK hPVRIG cells (HEK OE)
[6] = target: T3, human PVRIG on cells; assay: FACS, human PBMC, CD56 int. NK cells, 10ug/ml
[7] = target: T2, cynomolgus PVRIG on cells; assay: FACS, expi cPVRIG over expi parental cells, 3.3ug/ml
[8] = target: T3, human PVRIG on cells; assay: FACS, human PBMC, CD56 int. NK cells, 10ug/ml; remark: listed apart in the source
[9] = target: T3, human PVRIG on cells; assay: FACS, Jurkat cells, relative to control, 3.3ug/ml
[10] = target: T2, cynomolgus PVRIG on cells; assay: FACS, expi cPVRIG over expi parental cells, 3.3ug/ml; remark: listed apart in the source
[11] = target: T3, human PVRIG on cells; assay: FACS, HEK hPVRIG over HEK parental cells, 3.3ug/ml
[12] = target: T1, PVRIG (FACS-based competition assay of …); assay: FACS-based competition assay of PVRIG blocking; format and competitor not given; remark: listed apart in the source
[13] = target: T3, human PVRIG on cells; assay: FACS, human PBMC, CD8+ T cells, 10ug/ml; remark: listed apart in the source
[14] = target: T2, cynomolgus PVRIG on cells; assay: FACS, cyno PBMC, CD8+ T cells, 10ug/ml
[15] = target: T2, cynomolgus PVRIG on cells; assay: FACS, cyno PBMC, CD8+ T cells, 10ug/ml; remark: listed apart in the source
[16] = target: T7, cyno TIGIT on cells (cynomolgus macaque); assay: flow cytometry of fab; MFI on cyno TIGIT over-expressing Expi293 / MFI on parental Expi293
T7 construct: whole, on cells; also called Expi293 cyno TIGIT over-expressing cells

[17] = target: T4, human TIGIT on cells; assay: flow cytometry of fab; MFI on human TIGIT over-expressing Expi293 / MFI on parental Expi293
[18] = target: T7, cyno TIGIT on cells; assay: FACS titration of AF647-labelled mAb on cyno effector memory CD8+ T cells, Cyno Donor 1; isotype gMFI subtracted
[19] = target: T5, Mouse TIGIT-His; assay: SPR (ProteOn), Mouse TIGIT-His
[20] = target: T7, cyno TIGIT on cells; assay: FACS titration of AF647-labelled mAb on cyno effector memory CD8+ T cells, Cyno Donor 3; isotype gMFI subtracted
[21] = target: T8, Cyno TIGIT-His; assay: SPR (ProteOn), Cyno TIGIT-His
T8 construct: also called cyno TIGIT monomer (prepared in-house); C-terminal HIS-tagged cyno TIGIT ECD recombinant protein

[22] = target: T6, human TIGIT ECD with C-terminal …; assay: SPR (ProteOn), Human TIGIT-His

T8 sequence (ECD with C-terminal His tag, as listed by the source): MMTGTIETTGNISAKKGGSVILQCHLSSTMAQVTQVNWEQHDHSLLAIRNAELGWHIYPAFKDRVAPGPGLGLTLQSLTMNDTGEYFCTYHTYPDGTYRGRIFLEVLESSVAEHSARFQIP

Binder | IC50 [1] [nM] | gMFIr Human CD8+ T cells [3] | EC50 [5] [nM] | gMFIr Human CD56 int. NK [6] | gMFIr Expi cyno OE/par [7] | gMFIr Human CD56 int. NK [8] | gMFIr Jurkat [9] | gMFIr Expi cyno OE/par [10] | gMFIr HEK OE/par [11] | IC50 [12] [nM] | gMFIr Human CD8+ T cells [13] | other results
CHA.7.548 (antibody, V domains shown) VH: EVQLQQSGPELVKPGASVKISCKASGYTFTDYSMNWVKQSHGKSLEWIGDITPNNGSPNYNQKFKDKATLTVDKSSSTVYMELRSLTSEDSAVYYCASLFFDYWGHGTTLTVSS VL: DIVMTQSPSSLSVSAGEKVTMSCKSSQSLLNSGNQKNYLAWYQQKPGQPPKLLIYGASTRDSGVPDRFTGSGSGTDFTLTITSVQAEDLAVYYCQNDHTYPYTFGGGTKLEIK | 19 | 3.35 | 0.27 | 3.15 | 4.25 | 3.15 | 7.37 | 4.25 | 45.3 | 19 | 3.35 | gMFIr Cyno NK cells [2]: 1.18; gMFIr Cyno NK cells [4]: 1.18; gMFIr Cyno CD8+ T cells [14]: 1.09; gMFIr Cyno CD8+ T cells [15]: 1.09
CPA.9.103 (fab) (Fab, V domains shown, variant of CPA.9.059 screened as fab) VH: EVQLVETGGGLIQPGGSLRLSCAASGFTVSSNYMSWVRQAPGKGLEWVSVIYSGGSTYYADSVKGRFTISRDNSKNTLYLQMNSLRAEDTAVYYCARGARPNGQYPYWGQGTLVTVSS VL: DIQLTQSPSFLSASVGDRVTITCRASHGIKSLFSWYQQKPGKAPKLLIYAASTLQTGVPSRFSGSASGTEFTLTISSLQPEDFATYYCLQLDSFPTWTFGQGTKVEIK | – | – | – | – | – | – | – | – | – | – | – | MFIr (OE/Par) cTIGIT [16]: 30; MFIr (OE/Par) hTIGIT [17]: 95
CPA.9.103 (antibody, human IgG4 S228P, kappa, V domains shown, AF647 dye on the antibody in the FACS assay of FIG. 73, fab form is m92; also called CPA.9.103.H4(S241P)) VH: EVQLVETGGGLIQPGGSLRLSCAASGFTVSSNYMSWVRQAPGKGLEWVSVIYSGGSTYYADSVKGRFTISRDNSKNTLYLQMNSLRAEDTAVYYCARGARPNGQYPYWGQGTLVTVSS VL: DIQLTQSPSFLSASVGDRVTITCRASHGIKSLFSWYQQKPGKAPKLLIYAASTLQTGVPSRFSGSASGTEFTLTISSLQPEDFATYYCLQLDSFPTWTFGQGTKVEIKR | – | – | – | – | – | – | – | – | – | – | – | Kd [18]: 31 nM; Kd [19]: 25 nM; Kd [20]: 25 nM; Kd [21]: 0.337 nM; Kd [22]: 0.0064 nM
CPA.9.101 (fab) (Fab, V domains shown, variant of CPA.9.059 screened as fab) VH: EVQLVETGGGLIQPGGSLRLSCAASGFTVSSNYMSWVRQAPGKGLEWVSVIYSGGSTYYADSVKGRFTISRDNSKNTLYLQMNSLRAEDTAVYYCARGAPLFGQYPYWGQGTLVTVSS VL: DIQMTQSPSSLSASVGDRVTITCRASHAIASLFSWYQQKPGKAPKLLIYAASTLQTGVPSRFSGSASGTEFTLTISSLQPEDFATYYCLQLDSFPTWTFGQGTKVEIK | – | – | – | – | – | – | – | – | – | – | – | MFIr (OE/Par) cTIGIT [16]: 22; MFIr (OE/Par) hTIGIT [17]: 130
CHA.7.549 (antibody, V domains shown) VH: QVQLQQPGTELVKPGASVKLSCKASGFTFTTHWMHWVRQRPGQGLEWIGNIYPSNGGSNYNEKFKTKATLTVDRSSSTAYMHLSSLTSEDSAVYYCARRVNWDGYYFDYWGQGTTLTVSS VL: DIVMTQSQKFMSTSVGDRVSVTCKASQNVGTNVAWYQQKPGQSPKLLIYSASYRYSGVPDRFTGSGSGTDFTLTISNVQSEDLADYFCQQYNSYPLTFGGGTKLEIK | 36.1 | 1.42 | 2.6 | 3.05 | 1 | 3.05 | 2.23 | 1 | 29.7 | 36.1 | 1.42 | –
CHA.7.550 (antibody, V domains shown) VH: QVQLQESGTELVKPGASVKLSCKASGYTFTSYWIHWVKQRPGQGLEWIGNINPSNGGTNYNEKFKSKAALTVDKSSSTAYMQLSSLTSEDSAVYYCARRGLPYFFDYWGQGTTLTVSS VL: DIVMTQSQKFMSTSVGDRVSVTCKGSQNVGYNVAWYQQKPGQSPKALVYSASDRHSGVPDRFAGSGSGTDFTLTISNVQSEDLAEYFCQQYNSYPLTFGAGTKLELK | 58.3 | 1.29 | 1.34 | 1.6 | 0.9 | 1.6 | 2.1 | 0.9 | 27.7 | 58.3 | 1.29 | –
CHA.9.547.1 (antibody, human IgG4 S228P, kappa, V domains shown, AF647 dye on the antibody in the FACS assay of FIG. 73, also called CHA.9.547.1.H4(S241P)) VH: EVQLVESGGGLVQPGGSLRLSCAASGFTFSSYIMSWVRQAPGKGLEWVSTISGGGTNTYYADSVKGRFTISRDNSKNTLYLQMNSLRAEDTAVYYCAKWLLSYYAMDYWGQGTLVTVSS VL: DIQMTQSPSSLSASVGDRVTITCRASQNINVWLTWYQQKPGKAPKLLIYKASNLHTGVPSRFSGSGSGTDFTLTISSLQPEDFATYYCQQGQSYPYTFGQGTKLEIKR | – | – | – | – | – | – | – | – | – | – | – | Kd [18]: 25 nM; binding result [19]: no binding (tested: not printed); Kd [20]: 19 nM; Kd [21]: 1.13 nM
